Measured values: doi:10.1101/209445, “Large conformational changes in FtsH create an opening for substrate entry” (bioRxiv, 2017)

Key:
[1] = target: the molecule itself; assay: native gel or EMSA; Native PAGE (Mini-PROTEAN TGX precast gel) of SEC peak 2 (13.4 mL)
[2] = target: the molecule itself; assay: negative-stain electron microscopy; SEC peak 1 (dodecamer fraction), 3% uranyl acetate; 15000 particles, 2D class averages; 3D map with no symmetry imposed, 25 Å; two hexamers in a single LMNG micelle

B1: Full-length Aquifex aeolicus FtsH (enzyme, UniProt O67077 1-634, looked up)
chain: MNALKNFFIWAIIIGAAIVAFNLFEGKREFTTKVSLNEVVKLVEEGKVSYAEVRGNTAIIQTKDGQKLEVTLPPNTNLVDKMVEKGVRVEVANPEPPGGWLVNVFLSWLPILFFIGIWIFLLRQMSGGGNVNRAFNFGKSRAKVYIEEKPKVTFKDVAGIEEVKEEVKEIIEYLKDPVKFQKLGGRPPKGVLLYGEPGVGKTLLAKAIAGEAHVPFISVSGSDFVEMFVGVGAARVRDLFETAKKHAPCIIFIDEIDAVGRARGAIPVGGGHDEREQTLNQLLVEMDGFDTSDGIIVIAATNRPDILDPALLRPGRFDRQIFIPKPDVRGRYEILKVHARNKKLAKDVDLEFVARATPGFTGADLENLLNEAALLAARKGKEEITMEEIEEALDRITMGLERKGMTISPKEKEKIAIHEAGHALMGLVSDDDDKVHKISIIPRGMALGVTQQLPIEDKHIYDKKDLYNKILVLLGGRAAEEVFFGKDGITTGAENDLQRATDLAYRMVSMWGMSDKVGPIAIRRVANPFLGGMTTAVDTSPDLLREIDEEVKRIITEQYEKAKAIVEEYKEPLKAVVKKLLEKETITCEEFVEVFKLYGIELKDKCKKEELFDKDRKSEENKELKSEEVKEEVV
notes: The protomer is the molecule; The construct came from U. Baumann; also called AaFtsH; LMNG-AaFtsH; source: E. coli, overexpressed (pET22a); extracted from purified membranes with LMNG; purified (Ni-NTA/HisTrap, SEC Superose 6)
Which “stoichiometry N” value [1] does the source give for B1 here?
The value was 6.

And the “stoichiometry N” value [2]?
The value was 12.
